Where two headings read alike, the source gives them in different places.
T1: mouse PD-L2 (full-length, on cells) (mouse, UniProt Q9WUL5 20-247)
T1 construct: whole, on cells; HEK293 cells stably expressing full-length mouse PD-L2
T1 sequence (looked up): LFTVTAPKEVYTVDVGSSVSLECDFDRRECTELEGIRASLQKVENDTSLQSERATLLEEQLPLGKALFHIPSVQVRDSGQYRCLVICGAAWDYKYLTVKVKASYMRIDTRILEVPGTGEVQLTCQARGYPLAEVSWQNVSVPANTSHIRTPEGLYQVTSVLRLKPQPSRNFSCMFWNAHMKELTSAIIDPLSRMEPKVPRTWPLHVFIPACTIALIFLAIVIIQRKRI

T2: human PD-L2 (full-length, on cells) (human, UniProt Q9BQ51 20-273)
T2 construct: whole, on cells; CHO-K1 cells stably expressing full-length human PD-L2; also endogenous on NCI-H226 and transfected in Jurkat cells; also called hPD-L2; CHO-K1/hPD-L2
T2 sequence (looked up): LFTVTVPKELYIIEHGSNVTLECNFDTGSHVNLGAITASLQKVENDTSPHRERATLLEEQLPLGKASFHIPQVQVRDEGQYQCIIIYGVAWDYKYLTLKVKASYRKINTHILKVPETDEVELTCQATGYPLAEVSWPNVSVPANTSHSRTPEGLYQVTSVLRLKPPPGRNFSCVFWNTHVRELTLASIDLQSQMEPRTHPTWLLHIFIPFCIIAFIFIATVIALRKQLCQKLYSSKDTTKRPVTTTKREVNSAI

T3: human PD-L2 (full-length, on cells) (human, UniProt Q9BQ51 20-273)
T3 chain: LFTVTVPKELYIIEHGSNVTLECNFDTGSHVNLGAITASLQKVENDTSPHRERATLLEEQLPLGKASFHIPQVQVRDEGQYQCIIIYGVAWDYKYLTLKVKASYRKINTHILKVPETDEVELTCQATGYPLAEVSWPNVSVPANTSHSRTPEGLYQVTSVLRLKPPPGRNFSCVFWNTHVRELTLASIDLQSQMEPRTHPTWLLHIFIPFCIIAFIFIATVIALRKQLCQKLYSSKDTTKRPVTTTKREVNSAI


Experiments:
endogenous PD-L2 (human) [1] = molecular target: endogenous PD-L2 (human) (UniProt Q9BQ51); test: FACS, NCI-H226 cells
endogenous PD-L2 (human) [2] = molecular target: endogenous PD-L2 (human) (UniProt Q9BQ51); test: FACS, NCI-H226 cells; remark: listed apart in the source
PD-L2 (human) [3] = molecular target: PD-L2 (human) (UniProt Q9BQ51); test: FACS, CHO-K1 expressing human PD-L2
PD-L2 (human) [4] = molecular target: PD-L2 (human) (UniProt Q9BQ51); test: FACS blocking of PD-1 binding to CHO-K1/hPD-L2; high antigen concentration
PD-L2 (human) [5] = molecular target: PD-L2 (human) (UniProt Q9BQ51); test: as above; remark: listed apart in the source
PD-L2 (human) [6] = molecular target: PD-L2 (human) (UniProt Q9BQ51); test: FACS blocking of hPD-L2 binding to HEK293T-hPD-1; low antigen concentration
PD-L2 (human) [7] = molecular target: PD-L2 (human) (UniProt Q9BQ51); test: blocking of PD-L2 - PD-1 interaction (cell binding); low antigen concentration
[8] = molecular target: T4, human PD-L1 (full-length, on cells) (human, UniProt Q9NZQ7 19-290); test: FACS on HEK293T cells expressing human PD-L1
T4 construct: whole, on cells; HEK293 cells stably expressing full-length human PD-L1
Description: (§1) HEK293T cells expressing human PD-L1 were incubated with chimeric anti-PD-L2 antibodies. Cells were washed and binding was detected with an FITC-labelled anti-rat IgG Ab (Thermo Fisher Scientific). Flow cytometric analyses were performed using a FACSCalibur flow cytometer (Becton Dickinson). PE-labelled anti-human PD-L1 clone MIH1 served as positive control. All peaks overlap except for the positive control in FIG. 7F.
(§2) The ability of anti-PD-L2 antibodies binding to mouse PD-L2, human PD-L1 or cyno PD-L2 was determined by FACS. HEK293 cells stably expressing full-length monkey PD-L2, mouse PD-L2 or human PD-L1 were established, subcloned and verified. For binding assay, 1.5×10⁵ cells in 100 μl of FACSwash buffer were incubated with individual anti-PD-L2 antibodies (0.5 μg/ml) for 30 min. After three times of washing, the cells were re-suspended in FACSwash buffer containing FITC-labelled goat-anti-rat IgG (Thermo Fisher, 1:1000) or APC-labelled goat-anti-ratIgG (Biolegend, Clone Poly4054) at a 1:2000 dilution for 20 min at 4° C., washed three times and subsequently subjected to FACS analysis. FACS data was analysed using FlowJo Software and depicted as histograms including secondary antibody only controls.

[9] = molecular target: T1, mouse PD-L2 (full-length, on cells); test: FACS on HEK293T cells expressing mouse PD-L2
Description: as §1, with “mouse PD-L2” for “human PD-L1”, “anti-mouse PD-L2” for “anti-human PD-L1”, “TY25” for “MIH1”, “6F.” for “7F.”
as §2

[10] = molecular target: T2, human PD-L2 (full-length, on cells); test: FACS binding on cells expressing human PD-L2 (per the examples)
[11] = molecular target: T3, human PD-L2 (full-length, on cells); test: FACS binding to CHO-K1 cells expressing human PD-L2
Outline: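 CHO-K1 cells stably expressing full-length human PD-L2 were stained for 20 min at 4° C with an APC-labelled anti-rat IgG or anti-human IgG Fc suited to the antibody format. Binding was read by flow cytometry on a BD FACSCalibur, and binding EC50 was obtained by non-linear fitting of percentage of maximal binding against concentration in GraphPad Prism.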

[12] = molecular target: T2, human PD-L2 (full-length, on cells); test: FACS on CHO-K1 cells expressing human PD-L2, against the parental antibody
Outline: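 Sequence-optimised antibodies expressed in HEK293 cells and their parental antibodies were incubated at different concentrations with CHO-K1 cells expressing human PD-L2. Cells were washed and binding was detected with an APC-labelled anti-human Fc antibody by flow cytometry on a FACSCalibur.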

T4 sequence (Q9NZQ7 19-290): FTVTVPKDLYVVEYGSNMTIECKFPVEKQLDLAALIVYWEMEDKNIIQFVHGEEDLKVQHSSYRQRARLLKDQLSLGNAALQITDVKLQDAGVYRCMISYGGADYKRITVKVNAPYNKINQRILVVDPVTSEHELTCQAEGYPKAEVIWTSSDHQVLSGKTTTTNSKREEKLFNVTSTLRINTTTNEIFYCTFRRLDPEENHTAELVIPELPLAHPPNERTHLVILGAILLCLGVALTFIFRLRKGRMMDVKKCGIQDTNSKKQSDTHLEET

Row | Molecule | EC50 (endogenous PD-L2 (human) [1]) | EC50 (endogenous PD-L2 (human) [2]) | EC50 (PD-L2 (human) [3]) | IC50 (PD-L2 (human) [4]) | IC50 (PD-L2 (human) [5]) | IC50 (PD-L2 (human) [6]) | IC50 (PD-L2 (human) [7]) | binding result [8] | binding result [9] | binding result [10] | EC50 [11] | binding result [12]
1 | MIH18 | 2.21 nM | 2.69 nM | 1.59 nM | 2.42 nM | 1.8 nM | 0.104 nM | 0.0671 nM | – | – | – | – | –
2 | 10A9-D2 N31Q.LC (antibody, V domains shown, Optimized variant of 10A9-D2) VH: QVQLQESGPGLVKPSETLSLTCAVSGGSISSSYWWSWVRQPPGKGLEWVGEVFHVGVTNYNPSLKSRVTISVDKSKNQFSLKLTSVTAADTAVYYCARVTGTTGYYHGLDVWGQGTTVTVFS VL: DIQMTQSPSSLSASVGDRVTITCRASQGIRQDLGWYQQKPGKVPKRLIYAASSLQSGIPSRFSGSGSGTEFTLTISSLQPEDFATYYCLQHNNYPRTFGQGTKVEIK | – | – | – | – | – | – | – | no binding | no binding | binds | 0.32 nM | –
3 | 19B3-B3 M23K.M63L.HC (antibody, V domains shown, Optimized variant of 19B3-B3) VH: QVQLVQSGAEVKKPGASVKVSCKASGYTFTNYAIHWVRQAPGQRLEWMGWINTGLGKPKYSQLFQDRVTITRDTSASTASMELSGLRSDDTAVYYCARVGWELYFDYWGQGTLVTVSS VL: DIQMTQSPSTLSASVGDRVTITCRASQSISSLLAWYQQKPGKAPKLLIYKASSLESGVPSRFSGSGSGTEFTLTISSLQPDDFATYFCQQYNSYWTFGQGTKVEIK | – | – | – | – | – | – | – | no binding | no binding | binds | 0.38 nM | –
4 | 19B3-B3 N92Q.LC.M23K.M63L.HC (antibody, V domains shown, Optimized variant of 19B3-B3) VH: QVQLVQSGAEVKKPGASVKVSCKASGYTFTNYAIHWVRQAPGQRLEWMGWINTGLGKPKYSQLFQDRVTITRDTSASTASMELSGLRSDDTAVYYCARVGWELYFDYWGQGTLVTVSS VL: DIQMTQSPSTLSASVGDRVTITCRASQSISSLLAWYQQKPGKAPKLLIYKASSLESGVPSRFSGSGSGTEFTLTISSLQPDDFATYFCQQYQSYWTFGQGTKVEIK | – | – | – | – | – | – | – | no binding | no binding | – | – | binds
5 | 19B3-B3 N92Y.LC.M23K.M63L.HC (antibody, V domains shown, Optimized variant of 19B3-B3) VH: QVQLVQSGAEVKKPGASVKVSCKASGYTFTNYAIHWVRQAPGQRLEWMGWINTGLGKPKYSQLFQDRVTITRDTSASTASMELSGLRSDDTAVYYCARVGWELYFDYWGQGTLVTVSS VL: DIQMTQSPSTLSASVGDRVTITCRASQSISSLLAWYQQKPGKAPKLLIYKASSLESGVPSRFSGSGSGTEFTLTISSLQPDDFATYFCQQYYSYWTFGQGTKVEIK | – | – | – | – | – | – | – | no binding | no binding | – | – | binds
